Key:
[1] = system: Tat (HIV-1 primary isolate 133); assay: BLI; settings: EMSA: 20 mM MES pH 6.0, 150 mM NaCl, 2 mM DTT, 2 mM MgCl2, BSA, 8% PEG8000, 37 C 30 min (IN-FLm 2 h at 4 C); BLI: 50 mM HEPES pH 7.5, 200 mM NaCl, 2 mM BME, 5% …
[2] = target: T1, IN-CTD (HIV-1, UniProt P12497 1367-1435); assay: EMSA; EMSA: 20 mM MES pH 6.0, 150 mM NaCl, 2 mM DTT, 2 mM MgCl2, BSA, 8% PEG8000, 37 C 30 min (IN-FLm 2 h at 4 C); BLI: 50 mM HEPES pH 7.5, 200 mM NaCl, 2 mM BME, 5%; settings: protein: recombinant, tags: N-terminal 6xHis, label: 5' 32P
[3] = target: T2, IN-CTD-dCT (HIV-1, UniProt P12497 1367-1417); assay: EMSA; not affected by stem shortening; EMSA: 20 mM MES pH 6.0, 150 mM NaCl, 2 mM DTT, 2 mM MgCl2, BSA, 8% PEG8000, 37 C 30 min (IN-FLm 2 h at 4 C); BLI: 50 mM HEPES pH 7.5, 200 mM NaCl, 2 mM BME, 5%; settings: protein: recombinant; tags: N-terminal 6xHis; label: 5' 32P; hairpin
[4] = target: T3, IN-FLm (HIV-1 integrase, mammalian expressed) (HIV-1, UniProt P12497 1148-1435); assay: EMSA; similar to wild type; EMSA: 20 mM MES pH 6.0, 150 mM NaCl, 2 mM DTT, 2 mM MgCl2, BSA, 8% PEG8000, 37 C 30 min (IN-FLm 2 h at 4 C); BLI: 50 mM HEPES pH 7.5, 200 mM NaCl, 2 mM BME, 5%; settings: protein: recombinant; tags: N-terminal Flag; label: 5' 32P; hairpin
[5] = target: T1, IN-CTD; assay: BLI; 200 mM NaCl, 37 C; EMSA: 20 mM MES pH 6.0, 150 mM NaCl, 2 mM DTT, 2 mM MgCl2, BSA, 8% PEG8000, 37 C 30 min (IN-FLm 2 h at 4 C); BLI: 50 mM HEPES pH 7.5, 200 mM NaCl, 2 mM BME, 5%; settings: protein: recombinant; tags: N-terminal 6xHis; label: 3' biotin; hairpin
[6] = target: T2, IN-CTD-dCT; assay: as above; settings: protein: recombinant; tags: N-terminal 6xHis; label: 3' biotin; hairpin
[7] = target: T3, IN-FLm (HIV-1 integrase, mammalian …); assay: EMSA; EMSA: 20 mM MES pH 6.0, 150 mM NaCl, 2 mM DTT, 2 mM MgCl2, BSA, 8% PEG8000, 37 C 30 min (IN-FLm 2 h at 4 C); BLI: 50 mM HEPES pH 7.5, 200 mM NaCl, 2 mM BME, 5%; settings: protein: recombinant, tags: N-terminal Flag, label: 5' 32P
[8] = target: T2, IN-CTD-dCT; assay: as above; settings: protein: recombinant; tags: N-terminal 6xHis; label: 5' 32P; hairpin with bulge and hexaloop
[9] = target: IN-FL (integrase, E. coli) (HIV-1 NL4-3 (pNL4-3), UniProt P12497 1148-1435); assay: as above; settings: protein: recombinant; tags: N-terminal 6xHis; label: 5' 32P; hairpin with bulge and hexaloop
[10] = hairpin with bulge and hexaloop

CGUCCAUCUGGUCAUCUAGUGAUAUCAUCG [Bt-RNA(30)-mer]
Kd [1]: 3.84 µM

GGGCCAGAUCUGAGCCUGGGAGCUCUCUGGCCC [Bt-TAR]
Kd [1]: 1.49 µM

GGGCACUGCUUAAGCCUCAAUAAAGCUUGCCUUGAGUGCUUCAAGUAGUG (structured_RNA) [polyA]
binding result ([2]; hairpin): binds

B1: SD/Psi (structured_RNA)
RNA: GGGCGACUGGUCAGUACGCCAAAAAUUUUGACUAGCGGAGGCUAGAAGGAG
binding result ([2]; hairpin): binds

B2: TAR-VSS (structured_RNA)
RNA: GGGUCUCUCUGGUUAGACCAGAUCUGAGCGCUCUCUGGCUAACUAGGGAACCC
binding result [3]: binds

B3: TAR-LS (structured_RNA)
RNA: GGGUCUCUCUGGUUAGACCAGAUCUGAGCGCUGGGACGCUCUCUGGCUAACUAGGGAACCC
binding result [4]: binds

GGGCUCGGCUUGCUGAAGCGCGCACGGCAAGAGGCGAG (structured_RNA) [DIS]
binding result ([2]; hairpin): binds

GGGCCAGAUCUGAGCCUGGGAGCUCUCUGGCCC (structured_RNA) [Bt-TAR]
Kd [5]: 0.32 µM
Kd [6]: 0.77 µM

CGUCCAUCUGGUCAUCUAGUGAUAUCAUCG (ssRNA) [RNA(30)-mer]
binding result ([7]; weakly structured): binds

B4: TAR-SS (structured_RNA)
RNA: GGGUCUCUCUGGUUAGACCAGAUCUGAGCUGGGACUCUCUGGCUAACUAGGGAACCC
binding result [3]: binds

B5: TAR (structured_RNA)
RNA: GGGUCUCUCUGGUUAGACCAGAUCUGAGCCUGGGAGCUCUCUGGCUAACUAGGGAACCC
binding result [7, 10]: binds
binding result [2, 10]: binds
binding result [8]: binds
binding result [9]: binds

From paper PMC9692563, “The HIV-1 Integrase C-Terminal Domain Induces TAR RNA Structural Changes Promoting Tat Binding”
